Data as given in patent US20200369769A1 (Bayer, published 2020).

T1: human ILDR2 (Immunoglobulin Like Domain Containing Receptor 2) (human, UniProt Q71H61 21-639)
T1 sequence (looked up): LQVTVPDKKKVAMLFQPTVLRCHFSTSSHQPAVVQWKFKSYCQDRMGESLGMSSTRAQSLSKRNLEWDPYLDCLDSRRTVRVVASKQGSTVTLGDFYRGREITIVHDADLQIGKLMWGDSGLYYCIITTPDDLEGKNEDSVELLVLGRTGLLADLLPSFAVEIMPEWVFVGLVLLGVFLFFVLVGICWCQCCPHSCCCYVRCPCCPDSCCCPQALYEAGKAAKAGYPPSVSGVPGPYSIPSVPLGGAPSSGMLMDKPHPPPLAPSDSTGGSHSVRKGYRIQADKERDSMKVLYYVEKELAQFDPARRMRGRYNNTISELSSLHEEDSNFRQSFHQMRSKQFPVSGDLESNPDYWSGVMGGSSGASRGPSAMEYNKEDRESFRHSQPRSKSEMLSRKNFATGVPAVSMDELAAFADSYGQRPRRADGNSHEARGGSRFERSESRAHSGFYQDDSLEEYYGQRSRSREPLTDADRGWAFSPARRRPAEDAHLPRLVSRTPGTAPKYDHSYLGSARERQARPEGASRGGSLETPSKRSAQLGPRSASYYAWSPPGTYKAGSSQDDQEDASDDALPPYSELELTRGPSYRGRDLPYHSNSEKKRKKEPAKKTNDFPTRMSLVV


Columns and labels:
[1] = target: T1, human ILDR2 (Immunoglobulin Like Domain …); test: cell-based or functional assay
[2] = target: T1, human ILDR2 (Immunoglobulin Like Domain …); test: flow cytometry titration of hIgG1 on HEK cells stably transfected with human ILDR2; 1:1 equilibrium fit of MFI
Experimental: KD values were determined by flowcytometric quantitation of binding to HEK cells stably transfected with human ILDR2 and use of an algorithm designed to extrapolate affinities based on the binding curve. Briefly, hIgG1 s were added at a binding site concentration range of 3 pM-209 nM to a constant number of cells (100,000 cells/well) over 16 wells in a 96-well plate. One well contained cells without any added IgG to serve as a blank well. The cells were equilibrated for 4 hours at 4° C. An excess of Cy5-labeled goat anti-human polyclonal antibody (Jackson ImmunoResearch 109-606-097) at 90nM was added to each well after one FACS buffer wash of the cells. Cells were washed twice after a 30 minute incubation (at 4° C.) with the labeling pAb and then the Mean Fluorescence Intensity (MFI) was recorded over approximately 10,000 “events” using an Intellicyte flow cytometer. The […] of the IgGs binding to HEK 293 cells expressing ILDR2 were estimated by fitting the MFI vs. the IgG binding site concentration curve using a 1:1 equilibrium model as detailed in Drake and Klakamp (2007).

IL2 concentration (% over isotype control), mixed lymphocyte reaction [1] [% over isotype control]	Kd [2] [nM]	Binder
86	12.4	74.15.G09 (antibody, V domains shown, Full length IgG; The KD assay says 'hIgG1s') VH: EVQLVESGGGVVQPGRSLRLSCAASGFTFSSYGMHWVRQAPGKGLEWVAVISYDGSNKYYADSVKGRFTISRDNSKNTLYLQMNSLRAEDTAVYYCAKESPSVGLGSYYDFWSGLYGMDVWGQGTTVTVSS VL: EIVLTQSPGTLSLSPGERVTLSCRTGQRVENLFIAWYQQKPGQAPRLLLYGASNRATGIPDRFSGSGSGTDFTLTISRLEPEDSAVYYCQQYDDSGITFGQGTRLEIK
223	–	56.02.E10 (antibody, V domains shown) VH: QVQLVESGGGLVKPGGSLRLSCAASGFTFSNYGMHWVRQAPGKGPEWLAFIRYDGSKKYYADSVRGRFTISRDNSKNMLYLQMNSLRTEDTAVYYCAKEGIAAPGSGYYYGMDVWGQGTTVTVSS VL: QSALTQPASVSGSPGQSITISCSGTTTDVGRYTLVSWYQHHPGKAPKLIIFEVNKRPSGVSSRFSGSKSGNTASLTISGLQTEDEADYFCCSYTGTTVIFGGGTQLTVL
91	2	59-08.B02 (antibody, V domains shown, also called BAY1905254; aILDR2) VH: QVQLVQSGAEVKKPGSSVKVSCKASGGTFSSYAISWVRQAPGQGLEWMGGIIPILGIANYAQKFQGRVTITADKSTSTAYMELSSLRSEDTAVYYCARGRLPYGDFWDSWGQGTLVTVSS VL: not shown
74	2.7	56-02.E08 (antibody, V domains shown, Full length IgG; The KD assay says 'hIgG1s') VH: EVQLVQSGAEVKKPGESLKISCKASGYSFTTYWIGWVRQVPGKGLEWMGIIYPGDYDTRYSPSFQGQVTISADKSINTAYLQWSSLEASDSAMYYCAIGEPFDYWGQGTLVTVSS VL: not shown
82	10.7	61-02.C05 (antibody, V domains shown, Full length IgG; The KD assay says 'hIgG1s'; also called 61-02.005) VH: EVQLVESGGGVVQPGGSLRLSCAASGFTFSSYAMSWVRQAPGKGLEWVSGISSSGGSTQYADSVKGRFTVSRDNSKNTLYLQMKSLRAEDTALYYCAKDFVGVLPDAFDIWGQGTMVTVSS VL: DIQLTQSPSSLSASVGDRVTITCQASQDTNKYLNWYQQKPGKAPELLIYGASTLESGVPPRFSASGSGTDFTLTINSLQPEDIGRYYCQQYHIPPPSFGGGTKLEIK
